Data reported in PMC6262836.
“And” between values parts separate entries of the source, which are not always exact repeats. Identical values can stand only once. Like-named read-outs stand apart in the source and are kept apart here.

Columns and labels:
Test in all cases: SPR
[1] = target: Recombinant human VEGFR-1 Fc chimera (human) (UniProt P17948)
[2] = target: Recombinant human VEGFR-2 Fc chimera (human) (UniProt P35968)
[3] = target: Recombinant human VEGFR-2 Fc chimera (human) (UniProt P35968); remark: listed apart in the source
[4] = target: Recombinant human VEGFR-1 Fc chimera (human) (UniProt P17948); remark: listed apart in the source
[5] = target: Recombinant human VEGFR-2 Fc chimera (human) (UniProt P35968); remark: listed apart in the source
[6] = target: Recombinant human VEGFR-1 Fc chimera (human) (UniProt P17948); remark: listed apart in the source
[7] = target: Recombinant human VEGFR-2 Fc chimera (human) (UniProt P35968); remark: listed apart in the source
[8] = target: Recombinant mouse neuropilin-1 (NRP-1 monomer) (mouse) (UniProt P97333)
Sequence of UniProt P97333 (P97333 22-856): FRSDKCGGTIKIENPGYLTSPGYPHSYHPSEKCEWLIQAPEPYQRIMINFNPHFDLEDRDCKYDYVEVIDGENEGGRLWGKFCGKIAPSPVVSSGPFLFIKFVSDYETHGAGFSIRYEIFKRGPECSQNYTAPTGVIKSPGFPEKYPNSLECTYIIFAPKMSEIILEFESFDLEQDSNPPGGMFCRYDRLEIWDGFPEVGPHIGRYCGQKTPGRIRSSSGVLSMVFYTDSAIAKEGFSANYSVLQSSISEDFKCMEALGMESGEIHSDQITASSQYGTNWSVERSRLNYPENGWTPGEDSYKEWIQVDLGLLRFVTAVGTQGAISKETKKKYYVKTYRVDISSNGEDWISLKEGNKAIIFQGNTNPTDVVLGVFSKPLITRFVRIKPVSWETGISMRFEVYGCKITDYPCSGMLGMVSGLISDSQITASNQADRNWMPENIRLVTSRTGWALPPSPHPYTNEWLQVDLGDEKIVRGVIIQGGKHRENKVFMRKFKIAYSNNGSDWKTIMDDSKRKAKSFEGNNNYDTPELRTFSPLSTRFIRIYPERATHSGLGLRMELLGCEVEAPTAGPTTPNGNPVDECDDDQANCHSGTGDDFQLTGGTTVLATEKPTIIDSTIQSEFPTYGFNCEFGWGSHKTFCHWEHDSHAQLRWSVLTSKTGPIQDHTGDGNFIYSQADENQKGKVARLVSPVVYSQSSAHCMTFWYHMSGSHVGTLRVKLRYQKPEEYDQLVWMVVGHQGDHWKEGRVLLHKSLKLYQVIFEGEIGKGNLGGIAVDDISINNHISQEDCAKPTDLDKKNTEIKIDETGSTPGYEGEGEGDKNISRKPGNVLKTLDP

[9] = target: Recombinant mouse neuropilin-1 (NRP-1 monomer) (mouse) (UniProt P97333); remark: listed apart in the source

Sequence of UniProt P35968 (P35968 20-764, change not shown): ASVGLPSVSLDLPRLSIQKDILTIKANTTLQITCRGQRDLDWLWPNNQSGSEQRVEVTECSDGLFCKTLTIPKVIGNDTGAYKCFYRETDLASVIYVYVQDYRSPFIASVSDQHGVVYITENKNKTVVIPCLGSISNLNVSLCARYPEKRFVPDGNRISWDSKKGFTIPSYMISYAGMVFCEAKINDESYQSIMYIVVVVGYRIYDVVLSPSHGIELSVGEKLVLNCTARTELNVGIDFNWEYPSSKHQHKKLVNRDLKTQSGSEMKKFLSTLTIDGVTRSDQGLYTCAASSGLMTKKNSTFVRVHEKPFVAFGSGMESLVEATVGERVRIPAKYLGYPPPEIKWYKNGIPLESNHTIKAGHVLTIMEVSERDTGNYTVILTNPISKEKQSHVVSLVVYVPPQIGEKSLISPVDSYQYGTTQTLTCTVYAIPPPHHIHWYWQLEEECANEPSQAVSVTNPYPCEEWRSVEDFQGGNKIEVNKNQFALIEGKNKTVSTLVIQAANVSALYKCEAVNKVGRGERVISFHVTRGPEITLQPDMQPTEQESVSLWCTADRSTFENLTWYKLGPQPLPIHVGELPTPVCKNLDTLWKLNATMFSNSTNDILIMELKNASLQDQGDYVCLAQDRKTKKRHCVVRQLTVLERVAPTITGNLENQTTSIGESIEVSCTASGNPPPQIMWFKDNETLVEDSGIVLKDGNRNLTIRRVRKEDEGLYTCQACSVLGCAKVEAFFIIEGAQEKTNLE
Sequence of UniProt P17948 (P17948 27-758, change not shown): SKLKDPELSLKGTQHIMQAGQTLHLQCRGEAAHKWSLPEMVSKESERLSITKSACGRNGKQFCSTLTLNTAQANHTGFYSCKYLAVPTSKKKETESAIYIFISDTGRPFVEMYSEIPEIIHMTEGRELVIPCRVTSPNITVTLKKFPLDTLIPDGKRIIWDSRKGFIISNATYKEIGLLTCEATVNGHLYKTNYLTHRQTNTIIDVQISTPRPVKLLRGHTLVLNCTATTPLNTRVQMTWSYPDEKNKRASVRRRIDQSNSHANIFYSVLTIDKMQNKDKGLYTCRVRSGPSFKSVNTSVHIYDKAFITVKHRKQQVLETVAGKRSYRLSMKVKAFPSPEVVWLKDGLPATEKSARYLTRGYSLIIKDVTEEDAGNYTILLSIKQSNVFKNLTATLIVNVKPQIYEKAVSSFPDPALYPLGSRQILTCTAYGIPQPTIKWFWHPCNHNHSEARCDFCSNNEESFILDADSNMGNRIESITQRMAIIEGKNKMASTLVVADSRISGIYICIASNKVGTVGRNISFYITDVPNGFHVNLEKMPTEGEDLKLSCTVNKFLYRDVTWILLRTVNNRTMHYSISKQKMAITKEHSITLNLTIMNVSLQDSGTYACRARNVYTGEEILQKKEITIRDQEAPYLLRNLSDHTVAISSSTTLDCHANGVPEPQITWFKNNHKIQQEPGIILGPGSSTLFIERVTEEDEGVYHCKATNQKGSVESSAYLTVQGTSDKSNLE

| Kd [1] [nM] | Kd [2] [nM] | kon [3] [M⁻¹ s⁻¹] | Kd [4] [nM] | koff [4] | kon [4] [M⁻¹ s⁻¹] | Kd [5] [nM] | kon [5] [M⁻¹ s⁻¹] | Kd [6] [nM] | Kd [7] [nM] | Kd [8] [nM] | koff [5] [s⁻¹] | Kd [9] [nM] | koff [9] [s⁻¹] | kon [9] [M⁻¹ s⁻¹] | Substance |
| --- | --- | --- | --- | --- | --- | --- | --- | --- | --- | --- | --- | --- | --- | --- | --- |
| 7.2 | 17 | 547000 | 6.2 | 0.0088 s⁻¹ | 1.43e+06 | 5.5 | 5.47e+06 |  |  |  |  |  |  |  | Recombinant human VEGF121 (ligand) |
|  |  |  | 0.196 | 0.000569 s⁻¹ and 0.000592 s⁻¹ | 2.91e+06 | 8.6 | 1.76e+06 | 3.7 | 18 | 28 | 0.0151 | 25 | 0.065 | 2.64e+06 | Recombinant human VEGF165 (ligand) |
